Test results reported in US20190185562A1 (Regeneron, published 2019).

T1: wild-type human GP130 on HEK293.STAT3.Luc.GP130.hLEPR reporter cells (human, UniProt P40189 23-918)
T1 sequence (looked up): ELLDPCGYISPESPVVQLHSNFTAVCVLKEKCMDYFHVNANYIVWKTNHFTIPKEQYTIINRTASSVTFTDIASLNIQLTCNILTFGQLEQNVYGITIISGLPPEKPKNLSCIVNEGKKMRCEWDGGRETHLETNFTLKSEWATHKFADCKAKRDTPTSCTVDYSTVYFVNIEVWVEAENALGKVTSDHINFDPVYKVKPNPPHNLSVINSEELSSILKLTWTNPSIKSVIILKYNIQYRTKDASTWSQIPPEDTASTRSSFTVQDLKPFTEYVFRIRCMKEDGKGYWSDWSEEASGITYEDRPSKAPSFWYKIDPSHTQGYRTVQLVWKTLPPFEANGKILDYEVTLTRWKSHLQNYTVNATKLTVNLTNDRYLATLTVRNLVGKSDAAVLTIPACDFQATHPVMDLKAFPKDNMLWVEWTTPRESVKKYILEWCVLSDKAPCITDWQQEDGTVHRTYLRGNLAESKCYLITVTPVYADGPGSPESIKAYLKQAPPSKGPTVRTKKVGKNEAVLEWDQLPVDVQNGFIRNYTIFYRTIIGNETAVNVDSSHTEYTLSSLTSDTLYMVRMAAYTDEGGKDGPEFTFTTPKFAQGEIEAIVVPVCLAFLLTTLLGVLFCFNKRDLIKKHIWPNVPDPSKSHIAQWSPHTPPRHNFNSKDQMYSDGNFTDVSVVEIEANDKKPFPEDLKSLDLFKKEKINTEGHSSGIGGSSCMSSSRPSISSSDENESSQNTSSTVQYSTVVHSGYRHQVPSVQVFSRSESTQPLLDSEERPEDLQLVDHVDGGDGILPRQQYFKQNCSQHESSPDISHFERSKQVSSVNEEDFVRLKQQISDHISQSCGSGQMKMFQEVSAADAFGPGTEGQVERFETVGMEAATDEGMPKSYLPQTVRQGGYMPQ

T2: mutant human LEPR (Y1141F) on HEK293.STAT3.Luc.GP130.hLEPR (Y1141F) cells (human, UniProt P48357 22-1165)
T2 sequence (looked up): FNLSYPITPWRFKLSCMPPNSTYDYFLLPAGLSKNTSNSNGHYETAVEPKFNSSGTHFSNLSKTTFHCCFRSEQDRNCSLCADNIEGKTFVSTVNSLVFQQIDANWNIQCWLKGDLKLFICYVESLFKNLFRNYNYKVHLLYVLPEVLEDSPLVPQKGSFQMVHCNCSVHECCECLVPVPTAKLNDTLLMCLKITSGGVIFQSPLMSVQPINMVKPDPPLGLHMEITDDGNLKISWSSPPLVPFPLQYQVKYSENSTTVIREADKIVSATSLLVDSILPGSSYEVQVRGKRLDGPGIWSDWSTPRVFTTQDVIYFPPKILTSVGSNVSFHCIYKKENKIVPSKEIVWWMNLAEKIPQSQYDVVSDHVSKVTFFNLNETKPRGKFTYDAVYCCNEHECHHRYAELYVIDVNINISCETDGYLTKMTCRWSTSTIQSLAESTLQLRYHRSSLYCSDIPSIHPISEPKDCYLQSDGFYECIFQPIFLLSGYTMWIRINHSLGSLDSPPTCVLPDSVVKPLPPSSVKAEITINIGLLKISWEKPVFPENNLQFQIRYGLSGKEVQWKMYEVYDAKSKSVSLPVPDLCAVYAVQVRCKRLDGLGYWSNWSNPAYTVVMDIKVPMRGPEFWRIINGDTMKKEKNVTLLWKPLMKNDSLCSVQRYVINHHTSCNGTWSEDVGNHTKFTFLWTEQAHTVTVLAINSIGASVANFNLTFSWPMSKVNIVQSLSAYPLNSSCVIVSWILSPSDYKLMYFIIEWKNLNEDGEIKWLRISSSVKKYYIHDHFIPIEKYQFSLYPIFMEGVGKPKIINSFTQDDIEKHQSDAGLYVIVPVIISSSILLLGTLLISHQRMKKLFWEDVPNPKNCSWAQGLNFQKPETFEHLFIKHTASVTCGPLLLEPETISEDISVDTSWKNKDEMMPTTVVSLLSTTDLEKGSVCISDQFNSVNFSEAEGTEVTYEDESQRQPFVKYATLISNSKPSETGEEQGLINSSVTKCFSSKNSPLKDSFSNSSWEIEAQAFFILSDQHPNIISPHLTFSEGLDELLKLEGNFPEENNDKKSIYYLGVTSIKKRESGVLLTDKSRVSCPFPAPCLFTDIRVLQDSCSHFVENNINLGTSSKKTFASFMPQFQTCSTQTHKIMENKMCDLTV

T3: full length human GP130 (leucine at position 2 changed to valine) on HEK293/Stat3-luc/gp130-2X Sort cells (human, UniProt P40189 23-918)
T3 construct: whole, on cells; also called HEK293/gp130 2X Sort
T3 sequence (looked up): T1 sequence (looked up)

T4: extracellular domain of human LEPR, GPI-anchored on HEK293/hLEPR-GPI cells (human, UniProt P48357 22-839, GPI anchor at the C-terminus ; GPI anchor at the C-terminus, added through the carboxypeptidase M signal peptide. The protein is displayed on the HEK293 cell membrane.)
T4 sequence: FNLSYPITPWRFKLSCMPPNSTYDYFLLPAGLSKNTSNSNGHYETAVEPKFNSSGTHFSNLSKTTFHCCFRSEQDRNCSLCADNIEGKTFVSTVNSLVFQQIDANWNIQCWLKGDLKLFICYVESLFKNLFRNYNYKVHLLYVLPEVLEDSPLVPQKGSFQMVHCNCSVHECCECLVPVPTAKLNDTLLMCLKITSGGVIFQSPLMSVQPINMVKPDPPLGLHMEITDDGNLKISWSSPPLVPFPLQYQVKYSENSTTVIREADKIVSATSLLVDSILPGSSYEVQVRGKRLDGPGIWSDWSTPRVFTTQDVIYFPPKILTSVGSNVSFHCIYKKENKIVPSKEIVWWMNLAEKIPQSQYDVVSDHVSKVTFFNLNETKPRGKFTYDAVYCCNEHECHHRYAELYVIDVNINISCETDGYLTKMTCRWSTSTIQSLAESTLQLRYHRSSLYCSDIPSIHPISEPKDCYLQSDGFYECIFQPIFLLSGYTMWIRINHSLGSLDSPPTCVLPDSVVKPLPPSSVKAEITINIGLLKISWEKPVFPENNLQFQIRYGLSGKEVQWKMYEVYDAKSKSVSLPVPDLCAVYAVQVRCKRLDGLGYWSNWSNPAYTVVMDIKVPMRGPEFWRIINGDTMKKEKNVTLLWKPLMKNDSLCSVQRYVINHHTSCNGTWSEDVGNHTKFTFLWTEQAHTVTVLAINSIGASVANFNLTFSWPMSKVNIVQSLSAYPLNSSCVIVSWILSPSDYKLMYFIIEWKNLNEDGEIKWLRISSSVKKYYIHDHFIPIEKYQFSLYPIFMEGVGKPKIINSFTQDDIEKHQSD

B1: bsAb21236D (bispecific antibody, V domains shown)
VH 1: QVQLQESGPGLVKPSQTLSLTCTVSGGSISSGGDYWSWIRQLPGKGLEWIGYIYYSGSAYYNPSLKSRGTISIDTSKNQFSLKLTSVTAADTAVYFCVKLRFLEWFLGGWFGPWGQGTLVTVSS
VH 2: QVQLVESGGGLVKPGGSLRLSCAASGFTFSDYYMTWIRQTPGKGLDWVSYISSSGTNKYNADSVKGRFTISRDNAKNSLYLQMNSLRAEDTAVYYCVRDPPWGMDVWGQGTTVTVSS
VL: not shown
notes: LEPR x GP130 bispecific with common light chain; also called H4H21236D; bsAb21236 (LEPR × GP130)
B2: bsAb21236D (bispecific antibody, V domains shown)
VH 1: B1 VH 1
VH 2: B1 VH 2
VL: not shown
notes: LEPR x GP130 bispecific antibody; also called H4H21236D
B3: bsAb21237D (bispecific antibody, V domains shown)
VH 1: EVQLVESGGGLVQPGGSLRLSCAASGFTFSNYGMTWVRQAPGKGLEWVSAITGGGGSTYYSNSVKGRFTISRDNSKNTVYLRMNSVRAEDTAVYYCAKYKWNFVDDWGQGTTVTVSS
VH 2: B1 VH 2
VL: not shown
notes: LEPR x GP130 bispecific antibody; also called H4H21237D
B4: mAb16683 (antibody, V domains shown)
VH: B1 VH 2
VL: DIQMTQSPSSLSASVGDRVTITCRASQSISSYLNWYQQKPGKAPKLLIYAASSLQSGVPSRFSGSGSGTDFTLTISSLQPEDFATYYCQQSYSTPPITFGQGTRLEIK
notes: Conventional anti-GP130 antibody; also called mAb16683 (anti-GP130 mAb)
B5: mAb18445 (antibody, V domains shown)
VH: B1 VH 1
VL: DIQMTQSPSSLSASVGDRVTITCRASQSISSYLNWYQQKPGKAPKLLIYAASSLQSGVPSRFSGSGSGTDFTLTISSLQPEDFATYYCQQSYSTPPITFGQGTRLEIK
notes: Conventional anti-LEPR antibody; also called mAB18445 (anti-LEPR mAb)
B6: bsAb21237D (bispecific antibody, V domains shown)
VH 1: B3 VH 1
VH 2: B1 VH 2
VL: not shown
notes: LEPR x GP130 bispecific with common light chain; also called H4H21237D; bsAb21237 (LEPR × GP130)
B7: mAb18446 (antibody, V domains shown)
VH: B3 VH 1
VL: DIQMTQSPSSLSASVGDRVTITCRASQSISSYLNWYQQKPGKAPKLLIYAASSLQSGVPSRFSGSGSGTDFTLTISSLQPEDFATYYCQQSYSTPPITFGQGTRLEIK
notes: Conventional anti-LEPR antibody; also called mAB18446 (anti-LEPR mAb)

Key:
[1] = target: T1, wild-type human GP130 on …; assay: cell-based or functional assay
[2] = target: T2, mutant human LEPR (Y1141F) on …; assay: cell-based or functional assay
[3] = target: T3, full length human GP130 (leucine at …); assay: FACS, 200 nM antibody, HEK293/gp130 2X Sort cells
Protocol: (§1) For the FACS analysis, 0.5×10^6 cells/well of HEK293 parental cells, HEK293/Stat3-luc/gp130-2X Sort cells, and HEK293/hLEPR-GPI cells, were incubated with 200 nM of the conventional antibodies against either GP130 or LEPR or with LEPR×GP130 bispecific antibodies, along with isotype control antibodies at 4° C. in PBS (without calcium and magnesium) containing 2% FBS.
(§2) Cells were fixed using BD CytoFix™ (Becton Dickinson, #554655) and analyzed on an IQue® (Intellicyt) Flow Cytometer. Unstained and secondary antibody alone controls were also tested for all cell lines. The results were analyzed using ForeCyt® (IntelliCyt) and FlowJo version 10 softwares to determine the geometric means of fluorescence for viable cells.

[4] = target: T4, extracellular domain of human LEPR, …; assay: FACS, 200 nM antibody, HEK293/hLEPR-GPI cells, No Leptin
Protocol: as §1, §2

[5] = target: T4, extracellular domain of human LEPR, …; assay: FACS, 200 nM antibody, HEK293/hLEPR-GPI cells, 1 µM Leptin present
Protocol: as §1, §2

[6] = target: T5, human LEPR extracellular domain expressed with a C-terminal myc-myc-hexahistidine tag (human, UniProt P48357 22-839); assay: SPR (Biacore 4000), antibody captured by anti-human Fc, 25 C
T5 construct: Monomeric reagent; the entry named is the whole tagged construct; also called hLEPR-MMH; hLEPR.mmh

[7] = target: T6, macaca fascicularis LEPR extracellular domain expressed with a C-terminal myc-myc-hexahistidine tag (Macaca fascicularis, UniProt Q9MYL0 22-837 (rhesus entry)); assay: as above
T6 construct: Monomeric reagent; the entry named is the whole tagged construct; also called mfLEPR-MMH

| Binder | Binding Ratio: Normalized to Unstained Sample of Each Cell Line (FL4-A) [3] [ratio] | Binding Ratio: Normalized to Unstained Sample of Each Cell Line (FL4-A) [4] [ratio] | Binding Ratio: Normalized to Unstained Sample of Each Cell Line (FL4-A) [5] [ratio] | also measured |
| --- | --- | --- | --- | --- |
| B1 | 132 | 4420 | 3600 | EC50 (M), STAT3-luciferase activation of HEK293.STAT3.Luc.GP130.hLEPR (Y1141F) cells, 10 nM leptin [1]: 2.11e-09 M; Percentage activation as compared to hOSM [1]: 25%; Percentage activation as compared to hOSM [2]: 25% |
| B2 | – | – | – | 100 nM hLEPR-MMH Bound (RU) [6]: 8 RU |
| B3 | – | – | – | t½ [6]: 10 min; t½ [7]: 10 min |
| B4 | 235 | 21 | – | – |
| B5 | – | 4710 | 4250 | – |
| B6 | 169 | 6320 | 5930 | EC50 (M), STAT3-luciferase activation of HEK293.STAT3.Luc.GP130.hLEPR (Y1141F) cells, 10 nM leptin [1]: 2.46e-09 M; Percentage activation as compared to hOSM [1]: 20%; Percentage activation as compared to hOSM [2]: 20% |
| B7 | – | 7020 | 6390 | – |
